# B1: His×6-YY1(260–414) (domain or fragment, human, UniProt P25490 260-414, looked up)
# chain: LPPGGIPGIDLSDPKQLAEFARMKPRKIKEDDAPRTIACPHKGCTKMFRDNSAMRKHLHTHGPRVHVCAECGKAFVESSKLKRHQLVHTGEKPFQCTFEGCGKRFSLDFNLRTHVRIHTGDRPYVCPFDGCNKKFAQSTNLKSHILTHAKAKNNQ
# notes: source: bacteria, recombinant, purified
# Molecular target: T1, His×6-YY1(wt) (human, UniProt P25490 1-414)
# T1 construct: Yin Yang 1 (YY1), wild type; also called Yin Yang 1; source: bacteria, recombinant, purified
# Test: SPR; Biacore T200; about 12,000 RU of His×6-YY1(wt) immobilised by amine coupling on a CM5 chip; analytes at 62.5, 125, 250, 500 and 1000 nM
# Conditions: both partners purified
binder,measurement,value
B1,binding result,binds

# From publication PMC8996997, “YY1 Oligomerization Is Regulated by Its OPB Domain and Competes with Its Regulation of Oncoproteins” (Cancers, 2022)
